Consider eleven substances from PMC12990809.

Common to all, as to assay: pulldown
Data set [1] deals with T1, mex-5 (Caenorhabditis elegans) (UniProt Q9XUB2).
T1 sequence: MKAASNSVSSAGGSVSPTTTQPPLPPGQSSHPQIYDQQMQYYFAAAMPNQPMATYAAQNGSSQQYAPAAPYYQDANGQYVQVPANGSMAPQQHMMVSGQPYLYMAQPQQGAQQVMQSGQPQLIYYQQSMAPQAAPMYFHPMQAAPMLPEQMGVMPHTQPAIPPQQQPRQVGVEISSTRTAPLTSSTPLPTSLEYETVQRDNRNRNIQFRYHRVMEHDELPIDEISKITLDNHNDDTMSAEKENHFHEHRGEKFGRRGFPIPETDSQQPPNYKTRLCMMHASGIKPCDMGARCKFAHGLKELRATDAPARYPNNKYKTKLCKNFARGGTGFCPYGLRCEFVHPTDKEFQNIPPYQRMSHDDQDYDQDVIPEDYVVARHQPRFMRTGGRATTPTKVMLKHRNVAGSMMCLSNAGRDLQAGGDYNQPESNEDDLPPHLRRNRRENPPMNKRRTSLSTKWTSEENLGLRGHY
The settings on record: 20 nM protein, 1.5 uM RNA pool; 20 mM HEPES pH 7.8, 70 mM KCl, 10 mM NaCl, 10% glycerol, 2 mM DTT, 0.1 ug/uL BSA; 30 min, 4 C (protocol of this paper; not …); cited from earlier work.

The next data set deals with T2, RBM4 (Homo sapiens) (UniProt Q9BWF3).
T2 sequence: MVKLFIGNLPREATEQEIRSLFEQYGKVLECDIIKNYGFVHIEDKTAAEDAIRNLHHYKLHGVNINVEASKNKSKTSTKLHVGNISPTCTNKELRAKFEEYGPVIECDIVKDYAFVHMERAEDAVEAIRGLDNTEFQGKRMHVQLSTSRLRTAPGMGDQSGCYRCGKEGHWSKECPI
The settings on record: 20 nM protein, 1.5 uM RNA pool; 20 mM HEPES pH 7.8, 70 mM KCl, 10 mM NaCl, 10% glycerol, 2 mM DTT, 0.1 ug/uL BSA; 30 min, 4 C (protocol of this paper; not …); cited from earlier work.

The next data set deals with T3, RBM41 (Homo sapiens) (UniProt Q96IZ5).
T3 sequence: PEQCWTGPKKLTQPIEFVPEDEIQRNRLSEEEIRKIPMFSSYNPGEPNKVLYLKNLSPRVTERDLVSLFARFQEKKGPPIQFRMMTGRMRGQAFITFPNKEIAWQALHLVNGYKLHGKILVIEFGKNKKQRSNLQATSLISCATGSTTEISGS
The settings on record: 20 nM protein, 1.5 uM RNA pool; 20 mM HEPES pH 7.8, 70 mM KCl, 10 mM NaCl, 10% glycerol, 2 mM DTT, 0.1 ug/uL BSA; 30 min, 4 C (protocol of this paper; not …); cited from earlier work.

A further data set addresses T4, Rbm38 (Mus musculus) (UniProt Q62176).
T4 sequence: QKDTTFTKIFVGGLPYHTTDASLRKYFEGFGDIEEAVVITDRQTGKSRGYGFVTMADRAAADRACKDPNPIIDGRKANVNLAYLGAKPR
The settings on record: 20 nM protein, 1.5 uM RNA pool; 20 mM HEPES pH 7.8, 70 mM KCl, 10 mM NaCl, 10% glycerol, 2 mM DTT, 0.1 ug/uL BSA; 30 min, 4 C (protocol of this paper; not …); cited from earlier work.

The target in a further data set is T5, RBM3 (Homo sapiens) (UniProt P98179).
T5 sequence: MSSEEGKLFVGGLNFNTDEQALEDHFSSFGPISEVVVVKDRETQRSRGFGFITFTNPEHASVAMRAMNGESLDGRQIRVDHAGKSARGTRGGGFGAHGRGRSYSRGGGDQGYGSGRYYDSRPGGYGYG
To be noted: 20 nM protein, 1.5 uM RNA pool; 20 mM HEPES pH 7.8, 70 mM KCl, 10 mM NaCl, 10% glycerol, 2 mM DTT, 0.1 ug/uL BSA; 30 min, 4 C (protocol of this paper; not …); cited from earlier work.

For data set [2], the target named is T6, srsf3 (Xenopus tropicalis) (UniProt A0A8J0SH10).
T6 sequence: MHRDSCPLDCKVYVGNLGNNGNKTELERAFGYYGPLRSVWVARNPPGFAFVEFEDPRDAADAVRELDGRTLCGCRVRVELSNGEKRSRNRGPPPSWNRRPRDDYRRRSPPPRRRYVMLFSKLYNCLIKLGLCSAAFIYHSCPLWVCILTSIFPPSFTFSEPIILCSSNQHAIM
To be noted: 20 nM protein, 1.5 uM RNA pool; 20 mM HEPES pH 7.8, 70 mM KCl, 10 mM NaCl, 10% glycerol, 2 mM DTT, 0.1 ug/uL BSA; 30 min, 4 C.

For data set [3], the target named is T7, NAB2 (Saccharomyces cerevisiae) (UniProt P32505).
T7 sequence: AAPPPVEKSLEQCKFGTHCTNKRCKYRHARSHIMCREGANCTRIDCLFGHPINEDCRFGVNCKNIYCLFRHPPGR
To be noted: 20 nM protein, 1.5 uM RNA pool; 20 mM HEPES pH 7.8, 70 mM KCl, 10 mM NaCl, 10% glycerol, 2 mM DTT, 0.1 ug/uL BSA; 30 min, 4 C (protocol of this paper; not …); cited from earlier work.

The target of a further data set is T8, RBM46 (Homo sapiens) (UniProt Q8TBY0).
T8 sequence: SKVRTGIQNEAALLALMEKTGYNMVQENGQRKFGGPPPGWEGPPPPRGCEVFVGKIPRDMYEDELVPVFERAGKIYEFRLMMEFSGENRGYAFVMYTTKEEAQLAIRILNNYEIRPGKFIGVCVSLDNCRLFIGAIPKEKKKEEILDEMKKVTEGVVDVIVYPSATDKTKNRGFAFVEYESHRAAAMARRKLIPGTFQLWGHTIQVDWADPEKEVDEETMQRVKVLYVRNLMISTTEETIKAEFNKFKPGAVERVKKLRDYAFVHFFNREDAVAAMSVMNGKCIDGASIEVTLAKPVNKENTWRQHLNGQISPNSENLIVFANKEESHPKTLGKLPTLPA
The settings on record: 20 nM protein, 1.5 uM RNA pool; 20 mM HEPES pH 7.8, 70 mM KCl, 10 mM NaCl, 10% glycerol, 2 mM DTT, 0.1 ug/uL BSA; 30 min, 4 C (protocol of this paper; not …); cited from earlier work.

In data set [4] the target is T9, PUB1 (Saccharomyces cerevisiae) (UniProt P32588).
T9 sequence: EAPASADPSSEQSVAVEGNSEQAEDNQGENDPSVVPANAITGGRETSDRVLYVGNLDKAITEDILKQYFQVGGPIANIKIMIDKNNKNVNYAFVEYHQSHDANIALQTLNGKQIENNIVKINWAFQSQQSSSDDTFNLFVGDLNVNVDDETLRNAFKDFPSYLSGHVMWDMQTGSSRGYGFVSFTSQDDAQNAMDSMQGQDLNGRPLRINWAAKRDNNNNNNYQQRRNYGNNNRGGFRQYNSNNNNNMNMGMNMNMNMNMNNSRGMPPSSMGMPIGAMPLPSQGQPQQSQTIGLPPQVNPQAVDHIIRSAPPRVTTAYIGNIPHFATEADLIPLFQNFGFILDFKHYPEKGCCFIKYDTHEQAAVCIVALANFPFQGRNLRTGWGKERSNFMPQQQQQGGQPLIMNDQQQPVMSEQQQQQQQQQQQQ
To be noted: 20 nM protein, 1.5 uM RNA pool; 20 mM HEPES pH 7.8, 70 mM KCl, 10 mM NaCl, 10% glycerol, 2 mM DTT, 0.1 ug/uL BSA; 30 min, 4 C.

The target in data set [5] is T10, tia1 (Tetraodon nigroviridis) (UniProt H3D7H4).
T10 sequence: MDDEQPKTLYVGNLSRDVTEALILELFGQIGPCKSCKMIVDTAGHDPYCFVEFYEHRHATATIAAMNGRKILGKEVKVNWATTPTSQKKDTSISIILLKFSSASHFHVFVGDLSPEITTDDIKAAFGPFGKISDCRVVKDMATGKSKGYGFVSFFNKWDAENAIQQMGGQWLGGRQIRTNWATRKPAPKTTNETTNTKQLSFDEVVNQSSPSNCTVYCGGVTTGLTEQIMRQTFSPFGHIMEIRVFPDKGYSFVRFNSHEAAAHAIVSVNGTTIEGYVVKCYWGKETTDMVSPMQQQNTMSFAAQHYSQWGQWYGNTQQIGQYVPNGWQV
To be noted: 20 nM protein, 1.5 uM RNA pool; 20 mM HEPES pH 7.8, 70 mM KCl, 10 mM NaCl, 10% glycerol, 2 mM DTT, 0.1 ug/uL BSA; 30 min, 4 C.

Data set [6] concerns the target T11, pum (Drosophila melanogaster) (UniProt P25822).
T11 sequence: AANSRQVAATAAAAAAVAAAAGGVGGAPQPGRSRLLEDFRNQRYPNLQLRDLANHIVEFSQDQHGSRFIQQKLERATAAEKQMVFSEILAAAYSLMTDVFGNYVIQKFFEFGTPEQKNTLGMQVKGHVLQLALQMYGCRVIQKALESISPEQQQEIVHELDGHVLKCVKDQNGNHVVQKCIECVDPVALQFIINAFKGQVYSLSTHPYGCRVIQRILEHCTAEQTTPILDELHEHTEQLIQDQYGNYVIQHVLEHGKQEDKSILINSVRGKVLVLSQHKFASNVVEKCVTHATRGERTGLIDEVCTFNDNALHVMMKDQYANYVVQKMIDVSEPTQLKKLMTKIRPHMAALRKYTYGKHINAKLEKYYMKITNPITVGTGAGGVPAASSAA
To be noted: 20 nM protein, 1.5 uM RNA pool; 20 mM HEPES pH 7.8, 70 mM KCl, 10 mM NaCl, 10% glycerol, 2 mM DTT, 0.1 ug/uL BSA; 30 min, 4 C (protocol of this paper; not …); cited from earlier work.

With UAAUA [RNAcompete motif RNCMPT00039], in data set [1], the binding signal (z-score (mean of top ten 7-mers)) was 18. On to CGCGCG [RNAcompete motif RNCMPT00113], for which the binding signal (z-score (mean of top ten 7-mers)) with RBM4 (Homo sapiens) was 17.7. Turning to AUACAU [RNAcompete motif RNCMPT00053], in the data set with RBM41 (Homo sapiens), the binding signal (z-score (mean of top ten 7-mers)) was 10.7. Consider UUUNUGU [RNAcompete motif RNCMPT00051], for which the binding signal (z-score (mean of top ten 7-mers)) with Rbm38 (Mus musculus) was 17. Consider AGAUAC [RNAcompete motif RNCMPT00050], for which the binding signal (z-score (mean of top ten 7-mers)) in the data set with RBM3 (Homo sapiens) was 7.1. In data set [2], AACAAC [RNAcompete motif RNCMPT01680] returned a binding signal (z-score (mean of top ten 7-mers)) of 9.74. CCUCU [RNAcompete motif RNCMPT00042]: the binding signal (z-score (mean of top ten 7-mers)) in data set [3] was 6.1. Turning to AAUCAA [RNAcompete motif RNCMPT00054], the binding signal (z-score (mean of top ten 7-mers)) in the data set with RBM46 (Homo sapiens) was 8.4. For UUUUUUU [RNAcompete motif RNCMPT01685], in data set [4], the binding signal (z-score (mean of top ten 7-mers)) is 11.6.

With UUUUUUG [RNAcompete motif RNCMPT01674], the binding signal (z-score (mean of top ten 7-mers)) in data set [5] was 6.08.

Take UGUACAU [RNAcompete motif RNCMPT00046]: in data set [6], the binding signal (z-score (mean of top ten 7-mers)) was 28.5.
